The text below walks through data of patent US20250313650A1 (BIOLEGEND, published 2025).

Assay [1] concerns the target T1, recombinant CHI3L2 (UniProt Q15782 27-390, limits assumed).
T1 sequence (looked up): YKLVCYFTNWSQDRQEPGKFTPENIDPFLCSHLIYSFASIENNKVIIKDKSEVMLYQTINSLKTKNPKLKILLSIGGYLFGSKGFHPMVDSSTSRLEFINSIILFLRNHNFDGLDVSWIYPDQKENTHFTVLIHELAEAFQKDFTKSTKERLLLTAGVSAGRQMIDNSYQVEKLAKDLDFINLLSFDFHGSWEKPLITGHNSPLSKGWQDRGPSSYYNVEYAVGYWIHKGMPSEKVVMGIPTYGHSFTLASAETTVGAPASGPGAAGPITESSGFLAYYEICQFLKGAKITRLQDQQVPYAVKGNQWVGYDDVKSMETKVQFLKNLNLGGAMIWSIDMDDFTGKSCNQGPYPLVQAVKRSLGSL
Briefly: flow cytometry blocking assay on fixed/permeabilized THP-1 cells; antibody pre-incubated with recombinant protein. Here is the method: (§1) To assess for specificity for CHI3L1 and cross-reactivity with the closely related protein CHI3L2, certain anti-CHI3L1 antibody clones were assessed using CHI3L1 expressing human […] cell line THP-1. THP-1 cells were grown in RPMI media supplemented with 10% FBS in T75 culture flask. Cells were fixed in Fixation Buffer and permeabilized using Intracellular Perm Wash Buffer. 1 μg anti-CHI3L1 antibodies (conjugated to Alexa-647) were incubated with 5 μg recombinant CHI3L1 or recombinant CHI3L2 for 15 minutes and then added to cells. After 15 minutes incubation, cells were then washed twice with Intracellular Perm Wash Buffer and analyzed on a BD LSRII flow cytometer.

Assay [2] deals with T2, CHI3L2 expressed in human T cell leukemia cell line Jurkat (human, UniProt Q15782 27-390).
T2 construct: whole, on cells; Endogenous protein, detected by intracellular staining
T2 sequence (looked up): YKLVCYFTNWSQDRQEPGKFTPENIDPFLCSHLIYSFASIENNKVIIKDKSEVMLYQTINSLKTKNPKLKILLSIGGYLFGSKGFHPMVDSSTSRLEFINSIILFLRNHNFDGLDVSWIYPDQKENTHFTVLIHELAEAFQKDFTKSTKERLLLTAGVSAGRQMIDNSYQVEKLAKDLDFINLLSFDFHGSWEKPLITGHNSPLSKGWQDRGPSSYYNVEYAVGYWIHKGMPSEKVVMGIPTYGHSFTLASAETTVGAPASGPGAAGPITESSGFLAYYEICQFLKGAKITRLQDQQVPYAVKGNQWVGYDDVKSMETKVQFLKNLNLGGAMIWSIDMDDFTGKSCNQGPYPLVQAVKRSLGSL
Briefly: flow cytometry on fixed/permeabilized CHI3L2-expressing Jurkat cells, Alexa-647 antibody. How it is done:
To asses for cross-reactivity with the closely related protein CHI3L2, certain anti-CHI3L1 antibody clones were assessed using CHI3L2 expressing human T cell leukemia cell line Jurkat. Jurkat cells were grown in RPMI media supplemented with 10% FBS in T75 culture flask. Cells were fixed in Fixation Buffer and permeabilized using Intracellular Perm Wash Buffer. 1 μg anti-CHI3L1 antibodies (conjugated to Alexa-647) were added and allowed to incubate for 15 minutes. Cells were then washed twice with Intracellular Perm Wash Buffer and analyzed on a BD LSRII flow cytometer.

The target in assay [3] is T3, CHI3L1 expressed in human cell lines (THP-1, U-87 MG) (human, UniProt P36222 22-383).
T3 construct: Endogenous CHI3L1 of human cell lines; It was detected inside fixed and permeabilized cells, not on the cell surface; In the ERK assay it is the CHI3L1 made by live U-87 MG cells; also called chitinase 3 like protein 1; YKL-40
As to the kind of experiment: flow cytometry, fixed/permeabilized CHI3L1-expressing THP-1 cells, 1 µg Alexa-647 antibody. How it is done: In a first experiment, certain anti-CHI31L1 antibodies were assessed using CHI31L1 expressing human […] cell line THP-1. THP-1 cells were grown in RPMI media supplemented with 10% FBS in T75 culture flask. Cells were fixed in Fixation Buffer and permeabilized using Intracellular Perm Wash Buffer. 1 μg anti-CHI31L1 antibodies (conjugated to Alexa-647) were added and allowed to incubate for 15 minutes. Cells were then washed twice with Intracellular Perm Wash Buffer and analyzed on a BD LSRII flow cytometer.

Assay [4] deals with T4, recombinant human CHI3L1 (human, UniProt P36222 22-383).
T4 construct: also called recombinant CHI3L1; CHI3L1 protein
Briefly: flow cytometry blocking assay: 1 µg antibody pre-incubated with 5 µg recombinant CHI3L1, then added to THP-1 cells. Here is the method:
as §1
For orientation: A flow cytometer gives signals particle by particle.

Assay [5] concerns the target T4, recombinant human CHI3L1. Briefly: bead-based sandwich immunoassay; biotinylated Clone B is the detection antibody, SAV-PE read-out. Here is the method: In this Example, Clone F was paired with Clone B in a bead-based sandwich immunoassay. The assay used Clone F as a capture antibody to capture the antigen (CHI3L1 protein) and then Clone B was used as a detection antibody. The Clone F capture antibody was conjugated on the beads and the Clone B detection antibody was biotinylated. After incubation of the Clone F conjugated beads with CHI3L1 and then detection Clone B, on the beads surface, a sandwich including capture Clone F-CHI3L1-detection Clone B formed. The unbound CHI3L1 protein was then washed off and then streptavidin conjugated to phycoerythrin (SAV-PE) was added, which binds the biotin on the detection Clone B. The final complex including beads-Clone F capture antibody-CHI3L1-Clone B-SAV-PE was acquired onto a flow cytometer and the PE signal on the beads was measured.

The target in assay [6] is T4, recombinant human CHI3L1. Briefly: flow cytometry blocking assay on THP-1 cells (FIG. 5A legend). Here is the method: as §1

T4 sequence (P36222 22-383 limits assumed): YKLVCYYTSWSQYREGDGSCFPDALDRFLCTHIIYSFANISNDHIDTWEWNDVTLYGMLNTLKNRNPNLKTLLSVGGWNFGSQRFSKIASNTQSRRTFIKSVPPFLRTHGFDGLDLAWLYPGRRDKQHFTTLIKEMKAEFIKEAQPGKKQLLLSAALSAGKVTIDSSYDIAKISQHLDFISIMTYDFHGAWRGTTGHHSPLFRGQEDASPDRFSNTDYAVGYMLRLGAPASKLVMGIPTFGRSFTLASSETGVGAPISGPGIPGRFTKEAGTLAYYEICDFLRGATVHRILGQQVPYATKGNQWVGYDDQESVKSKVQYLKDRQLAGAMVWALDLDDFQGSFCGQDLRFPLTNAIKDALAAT
T3 sequence (P36222 22-383 limits assumed): as above

B1: anti-human CHI3L1 (Clone F) (antibody, V domains shown)
VH: QVQLQQSGPELVRPGVSVKISCKGSGYTFTDYAMHWVKQSHAKSLEWIGVISTYSGHTNYNQKFKGKATMTVDKSSSTAYMELARLTSEDSAIYYCARGVYYKPEFDYWGQGTTLTVSS
VL: DIQMTQSSSSFSVSLGDRVTITCKASEDIYNRLAWYQQKPGNAPRLLIFGATSLETGVPSRFSGSGSGKDYTLSITSLQTEDVATYYCQQYSSTPPTFGGGTKLEIK
notes: Hybridoma monoclonal antibody; a mouse IgG1 kappa isotype control was used alongside it
With B1, the binding result in assay [1] was “no binding”; in assay [2] it was “no binding (tested: 1 µg)”.

B2: anti-human CHI3L1 (Clone H) (antibody, V domains shown)
VH: QVQLQQSGPELVRPGVSVKISCKGSGYTFTHYAMHWVKQSHAKSLEWIGVISTYSGNTNYNQKFKGKATMTVDKSSSTAYMELARLTSEDSAIYYCARGVYYKPEFDYWGQGTTLTVSS
VL: DIQMTQSSSSFSVSLGDRVTITCKASEDIDNRLAWYQQKPGNAPRLLISGATSLETGVPSRFSGSGSGKDYTLSITSLQTEDVATYYCQQYWSTPPTFGGGTKLEIK
notes: Hybridoma monoclonal antibody; Conjugated to Alexa-647 for flow cytometry
Consider B2, for which the binding result in assay [3] is “binds”; in assay [4] it was “binds”; in assay [1] it was “no binding”; in assay [2], “no binding (tested: 1 µg)”.

B3: Clone B (antibody, V domains shown)
VH: EVKLLESGGGLVQPGGSLKLSCAASGCDFSRYWMSWVRQAPGKGLEWIGEINPDSSTINYTPSLKDKFIISRDNAKNTLYLQMSKVRSEDTALYYCARPEDHFAMDYWGQGTSVTVSS
VL: DIQMTQSPASQSASLGESVTITCLASQTIGTWLAWYQQKPGKSPQLLIYAATSLADGVPSRFSGSGSGTKFSFKISSLQAEDFVSYYCQQLYSTPWTFGGGTKLEIK
notes: Hybridoma monoclonal antibody
Take B3: the binding result in assay [5] is listed as “binds”.

B4: Clone A (antibody, V domains shown)
VH: DVQLQESGPDLVKPSQSLSLTCTVTGYSITSGYSWHWIRQFPGNKLEWMGYIHYSGRTNYNPSLKSRISFTRDTSKNQFFLRLNSVTPEDTATYYCARNYGYDEFAYWGQGTLVTVSA
VL: QIVLTQSPAIMSASPGEKVTMTCSASSSVSYMHWYQQKSGTSPKRWIYDTSKLASGVPARFSGSGSGTSYSLTISSMEAEDAATYYCQQWSSNPPTFGSGTKLEIK
notes: as for B2
In the case of B4, the binding result in assay [3] is “binds”; in assay [6] it was “binds”; in assay [1], “no binding”; in assay [2], “no binding (tested: 1 µg)”.

B5: Clone E (antibody, V domains shown)
VH: DVQLQESGPDLVKPSQSLSLTCTVTGYSITSGYSWHWIRQFPGNKLEWMGYIHYSGTTNYNPSLKSRISITRDTSKNQFFLQLNSVTTEDTATYSCARNYGYDEFAYWGQGTLVTVSA
VL: QIVLTQSPAIMSASPGEKVTMTCSASSSVSYMHWYQQKSGTSPKRWIYDTSKLASGVPARFSGSGSGTSYSLTISSMEAEDAATYYCQQWSSNPPTFGSGTKLEIK
notes: as for B2
Regarding B5, in assay [3], the binding result is listed as “binds”.
